Test [1] concerns the target T1, L^d MHC class I molecule (;mouse, UniProt P01887 21-119; P01897 25-362, limits assumed).
T1 construct: Empty class I molecule on the surface of RMAS-L^d cells; also called L^d class I molecules
T1 sequence (MHC heavy, looked up): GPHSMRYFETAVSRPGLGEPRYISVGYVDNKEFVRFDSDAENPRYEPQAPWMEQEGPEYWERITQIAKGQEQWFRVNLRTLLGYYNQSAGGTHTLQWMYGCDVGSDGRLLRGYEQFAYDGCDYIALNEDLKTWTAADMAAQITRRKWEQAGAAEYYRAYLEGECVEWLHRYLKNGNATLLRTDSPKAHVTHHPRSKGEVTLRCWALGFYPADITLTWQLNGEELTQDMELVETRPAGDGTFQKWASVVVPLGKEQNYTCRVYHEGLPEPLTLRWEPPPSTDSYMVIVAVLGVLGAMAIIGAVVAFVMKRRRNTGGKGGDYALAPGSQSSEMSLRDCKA
T1 sequence (b2m, looked up): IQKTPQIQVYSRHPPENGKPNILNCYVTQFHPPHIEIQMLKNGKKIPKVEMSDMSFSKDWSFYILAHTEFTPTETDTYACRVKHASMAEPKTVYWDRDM
As to the kind of experiment: MHC class I stabilization assay, flow cytometry of surface L^d on RMAS-L^d cells with titrated peptide. As for the experimental part:
(§1) The binding capacity of these synthetic peptides to L^d and D^b class I molecules were tested in an MHC class I stabilization assay (Cai et al. (1996) supra). Antigen-transporting deficient (TAP) RMAS cells (H-2^b) or L^d transfected RMAS (RMAS-L^d) cells were cultured in the presence of a titrated concentration of peptides at 27° C. After overnight culturing at 27° C., these cells were further cultured for two hours at 37° C. and the surface expression of L^d or D^b on the cells were analyzed by flow cytometry. […] Of the five peptides predicted bind to D^b, only IgE44 binds Db strongly and two peptides, IgE16 and IgE125, bind D^b weakly. […] Thus, a total of six peptides were identified that bind to either L^d or D^b MHC class I molecules.
(A flow cytometer gives signals particle by particle.)

For test [2], the target named is T1, L^d MHC class I molecule. Kind of test: MHC class I stabilization assay, flow cytometry on RMAS-L^d cells. As for the experimental part:
as §1

For test [3], the target named is T2, D^b MHC class I molecule (;mouse, UniProt P01887 21-119; P01899 25-309, limits assumed).
T2 construct: Empty class I molecule on the surface of RMAS cells; also called D^b class I molecules
T2 sequence (MHC heavy, looked up): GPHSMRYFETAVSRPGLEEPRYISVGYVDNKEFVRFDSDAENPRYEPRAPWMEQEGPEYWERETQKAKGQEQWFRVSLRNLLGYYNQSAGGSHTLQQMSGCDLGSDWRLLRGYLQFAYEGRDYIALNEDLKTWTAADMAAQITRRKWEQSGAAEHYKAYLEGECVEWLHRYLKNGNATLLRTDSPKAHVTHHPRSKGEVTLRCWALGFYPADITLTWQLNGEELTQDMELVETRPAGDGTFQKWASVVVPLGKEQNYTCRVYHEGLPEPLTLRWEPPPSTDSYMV
T2 sequence (b2m, looked up): T1 sequence (b2m, looked up)
As to the kind of experiment: MHC class I stabilization assay, flow cytometry on RMAS cells. As for the experimental part: as §1

Test [4] deals with T2, D^b MHC class I molecule. Kind of test: MHC class I stabilization assay, flow cytometry of surface D^b on RMAS cells with titrated peptide. As for the experimental part: as §1

Some results are limits rather than exact numbers.

On to RSAPEVYVF [IgE 307], for which the binding result with L^d MHC class I molecule [1] is recorded as “no binding”.

As for KSNGSNQGF [IgE 363], the binding result with L^d MHC class I molecule [1] is on record as “no binding”. Regarding HSTIQLYCF [IgE 114], the binding result with L^d MHC class I molecule [2] was “binds”. Turning to HSSCDPNAF [IgE 105], in the test with L^d MHC class I molecule [1], the binding result is recorded as “no binding”. For the molecule MSTVNFPAL (also called MSTVNFPAL) [IgE 44], the “ratio of fluorescence intensity (with peptide - without peptide)/without peptide” value in the test with D^b MHC class I molecule [3] is over 2 fold.

As for ASTCSKLNI [IgE 159], in the test with D^b MHC class I molecule [4], the binding result is “no binding”. As to TASMTLGCL [IgE 16], the binding result in the test with D^b MHC class I molecule [3] is reported as “binds”. For FPNPVTVTW [IgE 29], in the test with L^d MHC class I molecule [1], the binding result is “no binding”. As for TSLGNTSLR [IgE 411], the binding result with D^b MHC class I molecule [4] was “no binding”. In the case of IPPSPLDLY [IgE 209], the binding result in the test with L^d MHC class I molecule [1] was “no binding”. KPCKGTASM [IgE 11]: in the test with L^d MHC class I molecule [2], the “ratio of fluorescence intensity (with peptide - without peptide)/without peptide” value is over 2 fold.

For the molecule GSNQGFFIF [IgE 366], the binding result with D^b MHC class I molecule [3] and with L^d MHC class I molecule [2] was “binds” in each case.

For GHILNDVSV [IgE 125], the binding result with D^b MHC class I molecule [3] is on record as “binds”.

The values above are taken from patent US20090202506A1 (ORTHO MCNEIL PHARMACEUTICAL, published 2009).
